Drawing on paper PMC5702047, this text covers reduction of the integration of Sec61βOPG2 and RAMP4OPG into RMs (N-glycosylation) in vitro, post-translational, with an excess of WRBcc for one substance.

This experiment concerns the target TRC40 (rabbit (endogenous in reticulocyte lysate)).

Consider “cytosolic domain of the WRB receptor (WRBcc) (domain or fragment)”, for which the reduction of the integration of Sec61βOPG2 and RAMP4OPG into RMs (N-glycosylation) in vitro, post-translational, with an excess of WRBcc is 50%.
